The values that follow come from IntAct's records for PubMed 23977161.

Sequences and labels used below:
B1: Prelamin-A/C (Homo sapiens), P02545 (parent)
chain: METPSQRRATRSGAQASSTPLSPTRITRLQEKEDLQELNDRLAVYIDRVRSLETENAGLRLRITESEEVVSREVSGIKAAYEAELGDARKTLDSVAKERARLQLELSKVREEFKELKARNTKKEGDLIAAQARLKDLEALLNSKEAALSTALSEKRTLEGELHDLRGQVAKLEAALGEAKKQLQDEMLRRVDAENRLQTMKEELDFQKNIYSEELRETKRRHETRLVEIDNGKQREFESRLADALQELRAQHEDQVEQYKKELEKTYSAKLDNARQSAERNSNLVGAAHEELQQSRIRIDSLSAQLSQLQKQLAAKEAKLRDLEDSLARERDTSRRLLAEKEREMAEMRARMQQQLDEYQELLDIKLALDMEIHAYRKLLEGEEERLRLSPSPTSQRSRGRASSHSSQTQGGGSVTKKRKLESTESRSSFSQHARTSGRVAVEEVDEEGKFVRLRNKSNEDQSMGNWQIKRQNGDDPLLTYRFPPKFTLKAGQVVTIWAAGAGATHSPPTDLVWKAQNTWGCGNSLRTALINSTGEEVAMRKLVRSVTVVEDDEDEDGDDLLHHHHGSHCSSSGDPAEYNLRSRTVLCGTCGQPADKASASGSGAQVGGPISSGSSASSVTVTRSYRSVGGSGGGSFGDNLVTRSYLLGNSSPRTQSPQNCSIM

The variants in test [1] derive from B1. The note with it: with SYNE2, Q8WXH0-1.
The variants in test [2] derive from B1. Conditions: with SYNE2, Q8WXH0-1. The source holds these as a separate data set.

Regarding R401C, the “effect of a mutation on the interaction” value in the test with SYNE2, Q8WXH0-1 [1] is listed as “increasing interaction strength”; in the test with SYNE2, Q8WXH0-1 [2] it was “with no effect”.

Consider R427G, for which the “effect of a mutation on the interaction” value with SYNE2, Q8WXH0-1 [1] was “decreasing interaction strength”; with SYNE2, Q8WXH0-1 [2], “with no effect”.

In the case of L421P, the “effect of a mutation on the interaction” value was “decreasing interaction strength” in the test with SYNE2, Q8WXH0-1 [1] and “with no effect” with SYNE2, Q8WXH0-1 [2].

As to G411D, the “effect of a mutation on the interaction” value in the test with SYNE2, Q8WXH0-1 [1] was “increasing interaction strength”; with SYNE2, Q8WXH0-1 [2], “with no effect”.

For G413C, the “effect of a mutation on the interaction” value was “decreasing interaction strength” with SYNE2, Q8WXH0-1 [1] and “with no effect” with SYNE2, Q8WXH0-1 [2].

In the case of V415I, the “effect of a mutation on the interaction” value is listed as “increasing interaction strength” with SYNE2, Q8WXH0-1 [1] and “with no effect” with SYNE2, Q8WXH0-1 [2].

For the variant R419C, the “effect of a mutation on the interaction” value with SYNE2, Q8WXH0-1 [1] was “decreasing interaction strength”; with SYNE2, Q8WXH0-1 [2], “with no effect”.
